From patent publication US20250122303A1 (HUMMINGBIRD BIOSCIENCE PTE, published 2025)
Positions count from the first letter of the chain named.

Columns and labels:
human EGFR = molecular target: T1, human EGFR (human, UniProt P00533 25-645); assay: ELISA; plate coated with target polypeptide, absorbance 450 nm
T1 construct: also called human HER1 (EGFR) (Sino Biological Inc.)
Method: (§1) The antibodies were analysed for their ability to bind to human HER3 polypeptide as well as human HER1 (EGFR) and human HER2 (Sino Biological Inc., China).
(§2) ELISAs were carried out according to standard protocols. Plates were coated with 0.1 μg/ml of target polypeptide in phosphate-buffered saline (PBS) for 16 h at 4° C. After blocking for 1 h with 1% BSA in Tris buffer saline (TBS) at room temperature, the anti-HER3 antibody was serially diluted with the highest concentration being 10 μg/ml, and added to the plate. Post 1 h incubation at room temperature, plates were washed three times with TBS containing 0.05% Tween 20 (TBS-T) and were then incubated with a HRP-conjugated anti-His antibody (Life Technologies, Inc., USA) for 1 h at room temperature. After washing, plates were developed with colorimetric detection substrate 3,3′,5,5′-tetramethylbenzidine (Turbo-TMB; Pierce, USA) for 10 min. The reaction was stopped with 2M H₂SO₄, and OD was measured at 450 nm.

human HER2 = molecular target: T2, human HER2 (human, UniProt P04626 23-652); assay: as above
T2 construct: also called human HER2 (Sino Biological Inc.)
Method: as §1, §2

[1] = molecular target: T3, human HER4 expressed on HEK293 cells (human, UniProt Q15303 26-1308); assay: flow cytometry on HEK293 HER4 overexpressing cells
T3 construct: whole, on cells; also called HEK293 HER4 overexpressing cells; cell-surface expressed HER4
T3 sequence (Q15303 26-1308): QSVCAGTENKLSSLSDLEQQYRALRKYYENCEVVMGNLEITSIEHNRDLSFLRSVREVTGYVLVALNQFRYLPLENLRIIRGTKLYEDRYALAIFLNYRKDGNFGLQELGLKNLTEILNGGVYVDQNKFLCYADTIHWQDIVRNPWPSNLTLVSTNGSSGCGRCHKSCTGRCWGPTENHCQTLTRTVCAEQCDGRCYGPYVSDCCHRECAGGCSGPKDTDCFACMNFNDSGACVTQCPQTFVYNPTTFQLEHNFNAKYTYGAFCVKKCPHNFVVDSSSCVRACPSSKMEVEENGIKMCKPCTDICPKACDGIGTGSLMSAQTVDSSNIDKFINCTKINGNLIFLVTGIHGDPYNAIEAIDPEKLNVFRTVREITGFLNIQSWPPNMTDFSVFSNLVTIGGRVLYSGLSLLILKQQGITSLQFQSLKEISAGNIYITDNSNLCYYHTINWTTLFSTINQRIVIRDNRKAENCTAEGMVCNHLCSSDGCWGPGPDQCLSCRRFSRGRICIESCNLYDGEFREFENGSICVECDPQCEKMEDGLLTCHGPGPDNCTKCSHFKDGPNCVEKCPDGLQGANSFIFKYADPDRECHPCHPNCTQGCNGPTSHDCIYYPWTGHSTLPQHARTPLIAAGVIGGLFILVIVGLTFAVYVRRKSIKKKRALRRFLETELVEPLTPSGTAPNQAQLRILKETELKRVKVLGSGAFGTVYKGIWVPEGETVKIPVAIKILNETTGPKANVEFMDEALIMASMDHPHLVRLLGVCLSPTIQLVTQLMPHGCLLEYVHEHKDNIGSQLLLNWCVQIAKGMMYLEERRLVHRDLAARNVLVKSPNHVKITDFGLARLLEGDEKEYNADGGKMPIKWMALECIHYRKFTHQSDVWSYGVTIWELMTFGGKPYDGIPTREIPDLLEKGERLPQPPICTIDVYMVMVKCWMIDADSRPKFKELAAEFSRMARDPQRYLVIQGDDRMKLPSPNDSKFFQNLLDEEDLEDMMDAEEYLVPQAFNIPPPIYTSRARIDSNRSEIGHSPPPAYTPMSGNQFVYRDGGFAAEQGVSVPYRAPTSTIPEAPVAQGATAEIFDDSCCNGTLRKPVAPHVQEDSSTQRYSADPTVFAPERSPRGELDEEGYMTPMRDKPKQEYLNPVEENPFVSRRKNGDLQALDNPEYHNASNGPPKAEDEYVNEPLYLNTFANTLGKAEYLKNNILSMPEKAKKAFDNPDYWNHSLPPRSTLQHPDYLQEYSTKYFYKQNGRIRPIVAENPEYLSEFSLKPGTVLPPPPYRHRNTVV
Method: Also included was a commercial anti-HER4 antibody (Novus, Cat: FAB11311P). Unstained HEK293 cells were included in the analysis as negative controls.
HEK293 cells were incubated with 10 μg/ml of each antibody for 1 hour at 4° C. Flow cytometry was performed as described above. Cells were contacted with FITC-conjugated anti-FC antibody (Invitrogen, USA) at for 30 min at 4° C.

FcRn = molecular target: T4, FcRn (human, UniProt P55899); assay: Bio-Layer Interferometry (determined as described in Example 7)
T4 construct: recombinant; also called human FcRn; gene FCGRT (so in the source)

[2] = molecular target: T5, His-tagged FcγRIIIa (V158) (human, UniProt P08637 17-208); assay: as above
T5 construct: not shown: His tag

FcgRIIA (R167) = molecular target: T6, FcgRIIA (R167) (human, UniProt P12318); assay: as above
T6 construct: recombinant; also called CD32A; hFcγRIIa167R
T6 sequence (receptor, looked up): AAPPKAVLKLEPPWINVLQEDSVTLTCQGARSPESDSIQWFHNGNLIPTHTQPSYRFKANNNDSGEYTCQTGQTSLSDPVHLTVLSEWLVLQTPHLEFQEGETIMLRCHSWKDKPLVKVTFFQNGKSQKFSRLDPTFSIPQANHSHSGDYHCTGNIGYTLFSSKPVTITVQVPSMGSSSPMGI

FcgRIIA (H167) = molecular target: T7, FcgRIIA (H167) (human, UniProt P12318); assay: as above
T7 construct: recombinant; also called CD32A; hFcγRIIa167H
T7 sequence (receptor, looked up): T6 sequence (receptor, looked up) with R132H

His-tagged human HER3 [3] = molecular target: T8, His-tagged human HER3 (human, UniProt P21860 20-643); assay: BLI (Octet QK384), antibody on anti-human IgG capture tips, His-tagged human HER3 35-278 nM, global 1:1 fit; kdis Error 1.15E-04
T8 construct: Antigen of the BLI experiments and of the HER2-Fc dimerisation ELISA; also called HER3 His; not shown: His tag
Method: The anti-HER3 antibody clones in IgG1 format were analysed for binding affinity to human HER3. Bio-Layer Interferometry (BLI) experiments were performed using the Octet QK384 system (ForteBio). anti-Human IgG Capture (AHC) Octet sensor tips (Pall ForteBio, USA) were used to anti-HER3 antibodies (25 nM). All measurements were performed at 25° C. with agitation at 1000 rpm. […] Sensograms were referenced for buffer effects and then fitted using the Octet QK384 user software (Pall ForteBio, USA). Kinetic responses were subjected to a global fitting using a one site binding model to obtain values for association (Kₒₙ), dissociation (Koff) rate constants and the equilibrium dissociation constant (KD). Only curves that could be reliably fitted with the software (R²>0.90) were included in the analysis.

human HER3 polypeptide [4] = molecular target: T9, human HER3 polypeptide (human, UniProt P21860 20-643); assay: ELISA; plate coated with target polypeptide, antibody serially diluted, absorbance 450 nm
T9 construct: Recombinant antigen of the ELISAs; also called human HER3 (Sino Biological Inc.); human antigen HER3
Method: as §1, §2

His-tagged human HER3 [5] = molecular target: T8, His-tagged human HER3; assay: Bio-Layer Interferometry (Octet QK384); antibody on anti-Human IgG Capture tips, HIS-tagged human HER3 at 35, 69, 139 and 278 nM
hCD16a = molecular target: T10, hCD16a (human, UniProt P08637 17-208, limits assumed); assay: BLI; after 7 days at 40 °C/80% RH
T10 construct: also called human CD16a

human HER3 polypeptide [6] = molecular target: T9, human HER3 polypeptide; assay: BLI; after 7 days at 40 °C/80% RH

B1: 10D1F.FcA (anti-HER3 clone 10D1_c89 IgG1) (antibody)
heavy: not shown
light: DIQMTQSPSSVSASVGDRVTITCKASQIVGSNVAWYQQKPGKAPEPLIYSASYLYSGVPSRFSGSGSGTDFTLTISSLQPEDFATYYCQQYSSHPLTFGQGTKLEIKRTVAAPSVFIFPPSDEQLKSGTASVVCLLNNFYPREAKVQWKVDNALQSGNSQESVTEQDSKDSTYSLSSTLTLSKADYEKHKVYACEVTHQGLSSPVTKSFNRGEC
notes: also called 10D1F.A; HMBD-001
binding result (human EGFR): no binding | binding result (human HER2): no binding | binding result [1]: no binding | Kd (FcRn): 47.6 nM | Kd [2]: 986 nM | Kd (FcgRIIA (R167)): 976 nM | Kd (FcgRIIA (H167)): 1800 nM | koff (His-tagged human HER3 [3]): 2.16e-05 s⁻¹ | EC50 (human HER3 polypeptide [4]): 0.0144 nM | Kd (His-tagged human HER3 [5]): 0.0726 nM | koff (His-tagged human HER3 [5]): 2.16e-05 s⁻¹ | kon (His-tagged human HER3 [5]): 297000 M⁻¹ s⁻¹ | Kd (hCD16a): 302 nM | Kd (human HER3 polypeptide [6]): < 0.001 nM
